In publication PMC2857095 one finds Km and kcat data, which are given here for two proteins.

Residue numbers refer to the chain shown, from its start. Numbers in names are those of the source.

Substrate in this series: Nc1ncnc2c1ncn2[C@@H]1O[C@H](COP(=O)(O)OP(=O)(O)OP(=O)(O)O)[C@@H](O)[C@H]1O
Description: purified protein. The following applies: no DNA, 100 mM MgCl2.

B1: MutS (Escherichia coli K-12) (protein)
chain: MSAIENFDAHTPMMQQYLRLKAQHPEILLFYRMGDFYELFYDDAKRASQLLDISLTKRGASAGEPIPMAGIPYHAVENYLAKLVNQGESVAICEQIGDPATSKGPVERKVVRIVTPGTISDEALLQERQDNLLAAIWQDSKGFGYATLDISSGRFRLSEPADRETMAAELQRTNPAELLYAEDFAEMSLIEGRRGLRRRPLWEFEIDTARQQLNLQFGTRDLVGFGVENAPRGLCAAGCLLQYAKDTQRTTLPHIRSITMEREQDSIIMDAATRRNLEITQNLAGGAENTLASVLDCTVTPMGSRMLKRWLHMPVRDTRVLLERQQTIGALQDFTAGLQPVLRQVGDLERILARLALRTARPRDLARMRHAFQQLPELRAQLETVDSAPVQALREKMGEFAELRDLLERAIIDTPPVLVRDGGVIASGYNEELDEWRALADGATDYLERLEVRERERTGLDTLKVGFNAVHGYYIQISRGQSHLAPINYMRRQTLKNAERYIIPELKEYEDKVLTSKGKALALEKQLYEELFDLLLPHLEALQQSASALAELDVLVNLAERAYTLNYTCPTFIDKPGIRITEGRHPVVEQVLNEPFIANPLNLSPQRRMLIITGPNMGGKSTYMRQTALIALMAYIGSYVPAQKVEIGPIDRIFTRVGAADDLASGRSTFMVEMTETANILHNATEYSLVLMDEIGRGTSTYDGLSLAWACAENLANKIKALTLFATHYFELTQLPEKMEGVANVHLDALEHGDTIAFMHSVQDGAASKSYGLAVAALAGVPKEVIKRARQKLRELESISPNAAATQVDGTQMSLLSVPEETSPAVEALENLDPDSLTPRQALEWIYRLKSLV
For B1, under “low affinity site”, the Km worked out at 6.8 ± 0.6 µM and the kcat came out at 0.0317 ± 0.00067 s⁻¹.

B2: MutS (Escherichia coli K-12; D693N) (protein)
chain: B1 chain with D693N
Regarding B2, the Km (kcat unit not printed beside value) was 34 µM.

As a reminder, the Km is the substrate concentration at which the rate is half of its maximum. One may read the kcat as the number of substrate molecules converted per active site and unit of time at saturation.
